Measurements taken from patent publication US20240307496A1, “METHOD AND PHARMACEUTICAL COMBINATION FOR PREVENTING CANCER RECURRENCE” (priority 2021, published 2024).

B1: deglycosylated mIFN-α4: recombinant mouse interferon α4 (GenBank NP_034634) expressed in Pichia pastoris, glycosyl groups removed with glycosidase (protein, UniProt P07351 25-186, looked up)
Interferon alpha-4: CDLPHTYNLGNKRALTVLEEMRRLPPLSCLKDRKDFGFPLEKVDNQQIQKAQAILVLRDLTQQILNLFTSKDLSATWNATLLDSFCNDLHQQLNDLKACVMQEPPLTQEDSLLAVRTYFHRITVYLRKKKHSLCAWEVIRAEVWRALSSSTNLLARLSEEKE
modifications: deglycosylated
notes: recombinant mouse interferon α4 (GenBank NP_034634) expressed in Pichia pastoris, glycosyl groups removed with glycosidase
B2: PEG-mIFN-α4: deglycosylated recombinant mouse interferon α4 modified with 40kD Y-type polyethylene glycol succinimide ester (YPEG-NHS); SEQ ID NO: 6 (protein)
chain: B1 Interferon alpha-4
modifications: 40kD Y-type PEG; deglycosylated; peginterferon murine alpha 4

How the values were obtained:
[1] = test system: transplanted colorectal cancer CT26; test: Prevention of recurrence of transplanted colorectal cancer CT26 in mice; assay type: in vivo, BALB/c mice; settings: for anticancer activity / prevention of tumor recurrence (conclusion): CT26 recurrence simulated with low-density tumor inoculation; for survival rate during the observation period / Tumor incidence: gemcitabine 60 mg/kg i.p.; for Tumor incidence: tumor volume ≥ 62.5 mm^3 positive, then stopped 56 days
Experimental: On the day after tumor inoculation, they were randomly divided into the following experiment groups: PEG-mIFN-α4 only group (N=20, 10 females and 10 males), normal saline control group (N=20, 10 females and 10 males), gemcitabine only group (N=20, 10 females and 10 males), and PEG-mIFN-α4 combined with gemcitabine group (N=20, 10 females and 10 males).
PEG-mIFN-α4 was administered by subcutaneous injection on the back of the neck, with a dose of 1 microgram per mouse. Administration began on the day after grouping. In the PEG-miFN-α4 only group, PEG-mFN-α4 was administered once a week for 12 times, and then stopped for 56 days. In the PEG-mIFN-α4 combined with gemcitabine group, both PEG-mIFN-α4 and gemcitabine were administered once a week for 12 consecutive times, and then stopped for 56 days. In the gemcitabine only group, gemcitabine was administered once a week for 12 times, and then stopped for 56 days. The normal saline control group was given an equal volume of normal saline. Gemcitabine was administered by intraperitoneal injection at a dose of 60 mg/kg.
(§1) The tumor incidence of each group was calculated when the tumor volume was greater than or equal to 62.5 mm^3, which was determined as positive for tumor occurrence.

[2] = test system: transplanted liver cancer H22; test: Prevention of recurrence of transplanted liver cancer H22 in mice; assay type: in vivo, BALB/c mice; settings: for anticancer activity / prevention of tumor recurrence (conclusion): H22 recurrence simulated with low-density tumor inoculation; for Tumor incidence: tumor volume ≥ 62.5 mm^3 positive, then stopped 103 days, PEG-mIFN-α4 1 μg/mouse s.c.
From the text: After tumor treatment, the tumor load in patient's body is relatively low, so a low tumor grafting volume is used to simulate the state after tumor treatment. […] Three days after tumor inoculation, they were randomly divided into the following experiment groups: PEG-mIFN-α4 group (N=28, 14 females, 14 males). PEG-mIFN-α4 combined with gemcitabine group (N=28, 14 females, 14 males), normal saline control group (N=28, 14 females, 14 males), and gemcitabine only group (N=28, 14 females, 14 males).
PEG-mIFN-α4 was administered by subcutaneous injection on the back of the neck, with a dose of 1 microgram per mouse. Administration began on the day after grouping. In the PEG-mIFN-α4 group, PEG-mIFN-α4 was administered once a week for 9 weeks, and then stopped for 103 days. In the PEG-mIFN-α4 combined with gemcitabine group, PEG-mIFN-α4 and gemcitabine were administered once a week for 9 weeks, and then stopped for 103 days. In the gemcitabine alone group, gemcitabine was administered once a week for 9 weeks, and then stopped for 103 days. The normal saline control group was given an equal volume of normal saline. Gemcitabine was injected intraperitoneally at a dose of 60 mg/kg.
as §1

[3] = test system: mouse fibroblast/encephalomyocarditis vinis (L929/EMCV); test: L929/EMCV cytopathic inhibition method, specific activity; assay type: cell-based; settings: commercial mIFN-α4 (R&D) as the standard
Experimental: (§2) The bacterial endotoxin content of the deglycosylated mIFN-α4 stock solution was determined by the Limulus reagent method as lower than 60 EU/mg, specific activity was determined as 5.4×10^8 U/mg by using the commercial mIFN-α4 (R&D, catalog number 12115-1) as the standard, and by using the mouse fibroblast/encephalomyocarditis vinis (L929/EMCV) cytopathic inhibition method.
as §2, with “PEG-mIFN-α4” for “deglycosylated mIFN-α4”, “15 EU/mg. Specific” for “60 EU/mg, specific”, “6.1×10^6” for “5.4×10^8”

[4] = set-up: species or system BALB/c mice; settings: mouse, in vivo, sc
From the text: Note: In the pharmacokinetic analysis, for samples with blood concentration lower than the quantification lower limit, the sample before the peak blood concentration was counted as 0, and the sample after the peak was expressed as BLQ.

[5] = by day 134 after tumor inoculation, once a week for 12 times, PEG-mIFN-α4 1 μg/mouse s.c.
[6] = by day 134 after tumor inoculation, once a week for 12 times, PEG-mIFN-α4 1 μg/mouse s.c., listed as gemcitabine
[7] = by day 166 after tumor inoculation, once a week for 9 weeks, gemcitabine 60 mg/kg i.p.

Row | Molecule | anticancer activity / prevention of tumor recurrence (conclusion) [1] | survival rate during the observation period [1, 5] | survival rate during the observation period [1, 6] [%] | Tumor incidence [1, 5] [%] | Tumor incidence [1, 6] [%] | anticancer activity / prevention of tumor recurrence (conclusion) [2] | Median survival time (time after tumor inoculation, days) [2, 7] [days] | Tumor incidence [2, 7] [%] | Tumor incidence ([2]; by day 166 after tumor inoculation, once a week for 9 weeks, gemcitabine 60 mg/kg i.p., listed as gemcitabine) [%] | specific activity [3] | tumor incidence compared with normal saline control group ([1]; CT26, day 134) | Median survival time (time after tumor inoculation, days) [1, 5] [days] | Cl_F—obs [4] [mL/h] | T1/2 [4] [h] | Tmax [4] [h] | Vz_F—obs [4] [mL] | elimination half-life (T1) [4] [h] | plasma concentration peak time (Tmax) [4] [h] | tumor incidence compared with normal saline control group ([2]; H22, day 166)
1 | Nc1ccn([C@@H]2O[C@H](CO)[C@@H](O)C2(F)F)c(=O)n1 [Gemcitabine, reference compound] | could effectively prevent tumor recurrence | period: 55.0% | 55.0 | 50.0 | 50 | could effectively prevent tumor recurrence | 93.0 | 57.1 | 57.1 | – | – | – | – | – | – | – | – | – | –
2 | B1 | – | – | – | – | – | – | – | – | – | 5.4×10^8 U/mg | – | – | – | – | – | – | – | – | –
3 | B2 | could effectively prevent tumor recurrence | – | – | 95 | – | could effectively prevent tumor recurrence | – | 32.1 | – | 6.1×10^6 U/mg | lower | 68.5 | 0.07 | 28.3 | 24.0 | 2.91 | 28.3 | 24 | lower
